# Results as given in patent US20240140995A1.
# Legend:
# [1] = target: T1, GthCol (Geobacillus thermoglucosidasius C-terminal Colicin DNase domain, C36A, H78A, engineered) (Geobacillus thermoglucosidasius); assay: SPR Biacore T200, 37 C, single cycle kinetics; […]; settings: remark: other sources report otherwise
# [2] = target: T1, GthCol (Geobacillus thermoglucosidasius …); assay: SPR Biacore T200, 37 C, single cycle kinetics; settings: remark: other sources report otherwise
binder,measurement,setting,value
"E. coli IM-7, singly biotinylated, Q03708 1-87 (protein) MELKNSISDYTEAEFVQLLKEIEKENVAATDDVLDVLLEHFVKITEHPDGTDLIYYPSDNRDDSPEGIVKEIKEWRAANGKPGFKQG",Kd,[1],74 pM
same,"MR (Molar Ratio, binding stoichiometry)",[1],1.1
same,koff,[1],9.2e-05 s⁻¹
same,kon,[1],1.2e+06 M⁻¹ s⁻¹
same,complex half-life t/2-diss,[2],2.1 h
